For assay [1], the target named is CD16a on effector cells NK92MI-CD16a (UniProt P08637 17-254, limits assumed). As to the kind of experiment: cell-based or functional assay.
Assay [2] addresses T1, FcγRIIIa(V158) (Sino Biological Inc, 10389-H08C1) (UniProt P08637 17-208).
T1 construct: also called Fc gamma receptor IIIa
Briefly: binding ELISA; His-tagged FcγRIIIa captured by anti-His antibody, IgG pre-complexed with goat F(ab')2 anti-human-κ (value in the text differs from Table 4). On the procedure: (§1) High protein binding Costar 96-well plates were coated with anti-His antibody (Genscript, A00186) (1 μg/ml, 100 μl/well) in a coating buffer (0.05 M sodium carbonate buffer, pH 9.6) overnight at 4° C. The wells were washed twice with PBS/0.05% Tween 20 (pH 7.4). The plates were blocked with 5% Non-Fat Milk Powder/PBS (pH 7.4) for 1.5 hours at 37′C. Plates were washed and FcγRIIIa (Sino Biological Inc, 10389-H08C1) (1 μg/ml, 100 μl/well) in PBS/0.05% Tween 20, pH 7.4 (assay buffer) was added to the plates. Antibodies were pre-incubated with goat F(ab′)₂anti-human-κ antibody (Sigma) at a 1:2 (w/w) ratio in assay buffer for 1 h to form complex to increase binding avidity. […] After a 2 h incubation, plates were washed and bound IgG was detected by adding horseradish peroxidase (HRP)) labeled goat F(ab′)2 anti-human IgG F(ab′)2 (Sigma). After a final 1 hour incubation, plates were washed and the substrate 3,3′,5,5′-tetramethyl benzidine (TMB) (InnoReagents) was added. The reaction was stopped by adding 1 M phosphoric acid, and the OD was measured at 450 nm using a microplate reader Spectra MAX I3 (Molecular Devices).
(An ELISA detects its analyte on a solid surface through an enzyme-linked reagent.)

For assay [3], the target named is T1, FcγRIIIa(V158) (Sino Biological Inc, …). As to the kind of experiment: binding ELISA; His-tagged FcγRIIIa captured by anti-His antibody, IgG pre-complexed with goat F(ab')2 anti-human-κ, HRP anti-human F(ab')2 detection. The protocol: as §1

A word on the EC50: it is the concentration at which the effect is half-maximal. A higher EC50 goes with weaker potency.

Chain of CD16a on effector cells NK92MI-CD16a (P08637 17-254 limits assumed): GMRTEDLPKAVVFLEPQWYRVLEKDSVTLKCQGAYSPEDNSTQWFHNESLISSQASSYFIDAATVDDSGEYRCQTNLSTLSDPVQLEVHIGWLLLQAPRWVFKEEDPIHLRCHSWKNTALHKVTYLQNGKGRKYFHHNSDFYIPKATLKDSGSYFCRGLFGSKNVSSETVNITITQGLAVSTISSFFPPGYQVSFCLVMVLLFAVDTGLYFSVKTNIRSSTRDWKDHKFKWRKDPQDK
T1 sequence (P08637 17-208 F176V limits assumed): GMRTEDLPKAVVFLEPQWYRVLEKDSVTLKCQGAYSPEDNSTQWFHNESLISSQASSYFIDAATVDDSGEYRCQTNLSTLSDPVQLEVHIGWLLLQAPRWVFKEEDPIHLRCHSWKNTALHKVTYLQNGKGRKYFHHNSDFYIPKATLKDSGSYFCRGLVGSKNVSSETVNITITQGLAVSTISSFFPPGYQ

B1: anti-CD20 antibody MIL62 (antibody, human IgG1, kappa)
light: DIVMTQTPLSLPVTPGEPASISCRSSKSLLHSNGITYLYWYLQKPGQSPQLLIYQMSNLVSGVPDRFSGSGSGTDFTLKISRVEAEDVGVYYCAQNLELPYTFGGGTKVEIKRTVAAPSVFIFPPSDEQLKSGTASVVCLLNNFYPREAKVQWKVDNALQSGNSQESVTEQDSKDSTYSLSSTLTLSKADYEKHKVYACEVTHQGLSSPVTKSFNRGEC
heavy: not shown
modifications: N-glycans on the Fc region, not bisected by N-acetylglucosamine; core-fucosylated glycans 0.43% in the example batch (made in CHOK1-AF cells, Slc35c1 knocked out)
notes: In the FcγRIIIa ELISA the IgG was pre-complexed with goat F(ab')2 anti-human-κ antibody at 1:2 (w/w); also called MIL62 antibody; humanized anti-CD20 antibody of the present invention
Take B1: in assay [1], the “ADCC Target cell: Daudi, EC50” value is 0.0488 ng/mL and the “ADCC Target cell: Raji, EC50” value stood at 0.00738 ng/mL. For the same molecule, in assay [2], the EC50 stood at 55 ng/mL. For the same molecule, in assay [3], the EC50 came to 52 ng/mL.

B2: GAZYVA® (obinutuzumab) (antibody, human IgG1, kappa)
light: DIVMTQTPLSLPVTPGEPASISCRSSKSLLHSNGITYLYWYLQKPGQSPQLLIYQMSNLVSGVPDRFSGSGSGTDFTLKISRVEAEDVGVYYCAQNLELPYTFGGGTKVEIKRTVAAPSVFIFPPSDEQLKSGTASVVCLLNNFYPREAKVQWKVDNALQSGNSQESVTEQDSKDSTYSLSSTLTLSKADYEKHKVYACEVTHQGLSSPVTKSFNRGEC
heavy: not shown
modifications: N-glycans on the Fc region, more than 76% bisected by GlcNAc; core-fucosylated glycans 48.03% in the example batch
notes: In the FcγRIIIa ELISA the IgG was pre-complexed with goat F(ab')2 anti-human-κ antibody; also called afutuzumab; GA101
For the molecule B2, in assay [1], the “ADCC Target cell: Daudi, EC50” value was determined as 0.111 ng/mL and the “ADCC Target cell: Raji, EC50” value was 0.0143 ng/mL. In assay [3], the EC50 worked out at 113 ng/mL.

These data come from patent US20220064321A1 (published 2022).
